Test [1] has as its target T1, human PSMA-Fc (human, UniProt Q04609 44-750).
T1 construct: also called Human PSMA-Fc fusion
In words: Octet. In general terms: Biolayer interferometry detects binding as a change in optical thickness at a sensor tip.

Test [2] has as its target T2, cyno PSMA on PSMA-transfected CHO cells (cynomolgus monkey, UniProt A0A2K5VNZ0 1-750).
T2 construct: whole, on cells; also called Cyno PSMA CHO
In words: cell binding, labeled secondary antibody. How it is done: (§1) Surface binding was detected with a labeled secondary antibody specific for the anti-CD3 scFv.
(§2) The binding affinities to both human and cyno PSMA and human and cyno CD3 epsilon were determined.

Test [3] concerns the target T3, human PSMA on PSMA-transfected CHO cells (human, UniProt Q04609 1-750).
T3 construct: whole, on cells; also called Hu PSMA CHO
In words: cell binding, labeled secondary antibody. The protocol:
as §1, §2

Test [4] concerns the target T4, cynomolgus monkey CD3 epsilon (cynomolgus monkey, UniProt Q95LI5 22-117, limits assumed).
T4 construct: also called cyCD3e; cyno CD3
T4 sequence (looked up): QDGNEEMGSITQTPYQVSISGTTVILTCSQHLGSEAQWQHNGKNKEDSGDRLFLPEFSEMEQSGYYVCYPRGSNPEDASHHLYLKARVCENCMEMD
Kind of test: Octet.

The next test addresses T5, human CD3 epsilon (human, UniProt P07766 23-126, limits assumed).
T5 construct: also called huCD3e
Kind of test: Octet.

Test [5] concerns the target T1, human PSMA-Fc. Kind of test: Octet. This is another data set of the same source.
The target in the next test is T6, cynomolgus monkey PSMA (cynomolgus monkey, UniProt A0A2K5VNZ0 44-750).
T6 construct: also called cyPSMA; cyno PSMA
Kind of test: Octet.

The target of another test is T7, human PSMA (human, UniProt Q04609 44-750, limits assumed).
T7 construct: also called huPSMA; hPSMA
Kind of test: Octet.

In test [6] the target is T1, human PSMA-Fc. Kind of test: Octet, PSMA-Fc. How it is done: Binding affinity of select PSMA PTE variants was tested by Octet.

Here are results for one molecule from patent US20260055205A1 (published 2026).

T1 sequence (Q04609 44-750 limits assumed): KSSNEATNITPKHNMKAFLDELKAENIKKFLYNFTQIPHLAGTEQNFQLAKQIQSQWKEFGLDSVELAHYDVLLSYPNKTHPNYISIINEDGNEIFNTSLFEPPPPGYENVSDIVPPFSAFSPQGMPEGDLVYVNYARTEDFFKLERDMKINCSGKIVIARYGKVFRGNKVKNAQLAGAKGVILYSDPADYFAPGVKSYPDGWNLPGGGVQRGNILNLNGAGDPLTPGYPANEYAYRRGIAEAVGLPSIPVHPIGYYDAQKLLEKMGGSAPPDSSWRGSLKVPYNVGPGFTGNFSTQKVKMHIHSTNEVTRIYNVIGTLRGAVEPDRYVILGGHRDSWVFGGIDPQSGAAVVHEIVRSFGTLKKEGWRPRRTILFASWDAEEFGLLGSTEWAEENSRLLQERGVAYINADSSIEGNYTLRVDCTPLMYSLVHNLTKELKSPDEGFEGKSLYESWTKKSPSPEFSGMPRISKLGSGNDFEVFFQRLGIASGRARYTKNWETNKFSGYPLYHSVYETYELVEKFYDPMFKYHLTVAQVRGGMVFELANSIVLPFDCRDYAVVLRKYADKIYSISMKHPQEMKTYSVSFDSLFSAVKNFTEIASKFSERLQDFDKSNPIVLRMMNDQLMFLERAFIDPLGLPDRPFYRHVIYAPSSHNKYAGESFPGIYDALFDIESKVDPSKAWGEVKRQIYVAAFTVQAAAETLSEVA
T3 sequence (Q04609 whole entry): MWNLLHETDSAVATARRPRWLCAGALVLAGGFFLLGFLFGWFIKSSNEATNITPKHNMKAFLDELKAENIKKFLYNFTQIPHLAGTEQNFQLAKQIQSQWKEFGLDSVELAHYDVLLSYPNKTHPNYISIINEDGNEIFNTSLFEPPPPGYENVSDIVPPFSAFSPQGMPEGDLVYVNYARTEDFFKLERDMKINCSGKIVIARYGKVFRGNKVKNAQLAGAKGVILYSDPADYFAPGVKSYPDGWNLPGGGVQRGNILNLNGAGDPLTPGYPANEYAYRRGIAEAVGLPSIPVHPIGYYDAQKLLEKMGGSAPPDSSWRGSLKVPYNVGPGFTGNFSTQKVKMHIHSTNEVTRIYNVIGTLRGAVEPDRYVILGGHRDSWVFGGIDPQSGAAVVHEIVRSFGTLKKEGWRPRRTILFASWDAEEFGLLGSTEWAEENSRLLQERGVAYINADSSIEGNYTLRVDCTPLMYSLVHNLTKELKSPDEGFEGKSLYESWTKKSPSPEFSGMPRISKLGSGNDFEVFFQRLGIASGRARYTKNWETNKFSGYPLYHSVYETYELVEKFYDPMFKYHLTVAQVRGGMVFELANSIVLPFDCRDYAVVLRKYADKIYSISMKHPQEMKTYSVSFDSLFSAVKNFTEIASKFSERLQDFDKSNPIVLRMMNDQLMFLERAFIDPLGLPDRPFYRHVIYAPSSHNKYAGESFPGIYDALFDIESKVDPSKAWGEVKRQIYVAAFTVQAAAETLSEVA
T7 sequence (Q04609 44-750 limits assumed): as the sequence (Q04609 44-750 limits assumed) above
T5 sequence (P07766 23-126 limits assumed): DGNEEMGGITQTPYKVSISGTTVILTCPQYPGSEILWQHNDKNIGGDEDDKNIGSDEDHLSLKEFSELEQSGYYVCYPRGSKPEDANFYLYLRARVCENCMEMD

B1: uTCE of AC3092 (bispecific antibody)
chain: QVQLVESGGGVVQPGRSLRLSCAASGRTFGIYVMGWVRQAPGKEREFVAAISWSGSNRLVSDSVKGRFTISRDNSKNTLYLQMNSLRAEDTAVYYCAASNRLYGRTWYDFNESDYWGQGTQVTVSSGGGGSGGGSELVVTQEPSLTVSPGGTVTLTCRSSNGAVTSSNYANWVQQKPGQAPRGLIGGTNKRAPGTPARFSGSLLGGKAALTLSGVQPEDEAVYYCALWYPNLWVFGGGTKLTVLGATPPETGAETESPGETTGGSAESEPPGEGEVQLLESGGGIVQPGGSLKLSCAASGFTFNTYAMNWVRQAPGKGLEWVARIRSKYNNYATYYADSVKDRFTISRDDSKNTVYLQMNNLKTEDTAVYYCVRHENFGNSYVSWFAHWGQGTLVTVSS
notes: also called AMX-500-P1; PSMA.5-CD3.23
Usually Kd stands for the constant that tells how readily two partners part at equilibrium. By koff is commonly meant the rate constant with which the complex falls apart. By kon is commonly meant the second-order rate constant of association. The term EC50 denotes the concentration at which the effect is half-maximal. For B1, the Kd with human PSMA-Fc [1] turned out to be 3.9 nM; in test [4], 64.6 nM; in the test with human CD3 epsilon, 71.9 nM; in the test with human PSMA-Fc [5], 3.9 nM; with cynomolgus monkey PSMA, 41.1 nM; with human PSMA, 4.5 nM. For the same molecule, the Kd in the test with human PSMA-Fc [6] was 3.9 nM. Also, the koff with human PSMA-Fc [1] stood at 0.00027 s⁻¹; with human PSMA-Fc [6], 0.000273 s⁻¹. Further, the values for the kon with human PSMA-Fc [1] and in the test with human PSMA-Fc [6] were 72000 M⁻¹ s⁻¹ and 72500 M⁻¹ s⁻¹, respectively. In addition, the EC50 in test [2] was found to be 28.8 nM; in test [3], 9.06 nM.
